For eleven molecules, EC50 results are on record in US20100260668A1 (published 2010).

In assay [1] the target is T1, VEGF (UniProt P15692 27-191, limits assumed).
T1 construct: bought antigen coated on the ELISA plate
Put plainly: direct bind ELISA, C-terminal VD. In general terms: In an ELISA, binding on a coated surface is turned into a signal by an enzyme label.
Description: Enzyme Linked Immunosorbent Assays to screen for antibodies that bind a desired target antigen were performed as follows. […] Plates were washed four times with PBS containing 0.02% Tween 20. Plates were blocked by the addition of 300 μL/well blocking solution (non-fat dry milk powder, various retail suppliers, diluted to 2% in PBS) for ½ hour at room temperature. Plates were washed four times after blocking with PBS containing 0.02% Tween 20.
Plates were washed 4 times with PBS containing 0.02% Tween 20.

For assay [2], the target named is T2, PlGF (UniProt P49763-2 21-149, limits assumed).
T2 construct: bought antigen coated on the ELISA plate; also called Placental GF
T2 sequence (looked up): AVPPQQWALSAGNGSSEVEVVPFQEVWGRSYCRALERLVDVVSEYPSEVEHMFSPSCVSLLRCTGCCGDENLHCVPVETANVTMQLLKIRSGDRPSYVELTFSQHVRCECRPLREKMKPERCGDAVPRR
Put plainly: direct bind ELISA, N-terminal VD.

The target of assay [3] is T3, DLL4 (human, UniProt Q9NR61 27-685).
T3 construct: whole, on cells; also called human DLL4
Kind of assay: flow cytometry on 293G-human DLL4 cells; DLL4 VD C-terminal. In general terms: In flow cytometry, cells or beads pass a laser one at a time.

T1 sequence (P15692 other isoform, or with tags, fused parts or gaps limits assumed): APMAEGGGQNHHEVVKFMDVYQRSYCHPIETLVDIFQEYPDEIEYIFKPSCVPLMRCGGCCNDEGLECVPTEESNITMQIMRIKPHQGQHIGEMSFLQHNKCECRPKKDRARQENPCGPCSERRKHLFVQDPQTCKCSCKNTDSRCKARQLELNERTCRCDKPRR

B1: DVD561 (bispecific antibody, human IgG1, kappa)
heavy: not shown
light: AIQMTQSSSSFSVSLGDRVTITCKASEDIYNRFAWYQQKPGNAPRLLISGAASLEAGVPSRFSGSGSGQDYTLSITSLQTEDVATYYCQQYWSTPWTFGGGTKLEIKRTVAAPDIQMTQSPSSLSASVGDRVTITCRASQVIRRSLAWYQQKPGKAPKLLIYAASNLASGVPSRFSGSGSGTDFTLTISSLQPEDFATYYCQQSNTSPLTFGQGTKVEIKRTVAAPSVFIFPPSDEQLKSGTASVVCLLNNFYPREAKVQWKVDNALQSGNSQESVTEQDSKDSTYSLSSTLTLSKADYEKHKVYACEVTHQGLSSPVTKSFNRGEC
notes: outer AB074 (PlGF), inner AB071 (VEGF); HC linker long, LC linker short; also called DVD-Ig DVD561
What is called EC50 is the concentration that produces a half-maximal response. For the molecule B1, the 50% effective concentration (EC50) in assay [1] came to 241 nM; in assay [2], 1.04 nM.

B2: DVD474 (bispecific antibody, human IgG1, kappa)
heavy: not shown
light: DIQMTQSPSSLSASVGDRVTITCRASQVIRRSLAWYQQKPGKAPKLLIYAASNLASGVPSRFSGSGSGTDFTLTISSLQPEDFATYYCQQSNTSPLTFGQGTKVEIKRTVAAPSVFIFPPDIQMTQSPSSLSASVGDRVTITCRASQDVSTAVAWYQQKPGKAPKLLIYSASFLYSGVPSRFSGSGSGTDFTLTISSLQPEDFATTYYCQQSYTGTVTFGQGTKVEIKRTVAAPSVFIFPPSDEQLKSGTASVVCLLNNFYPREAKVQWKVDNALQSGNSQESVTEQDSKDSTYSLSSTLTLSKADYEKHKVYACEVTHQGLSSPVTKSFNRGEC
notes: DVD-Ig; outer AB071 (VEGF), inner AB015 (DLL4); also called VEGF and DLL4 DVD-Ig, HC linker long, LC linker long
Consider B2, for which the EC50 in assay [3] amounted to 2.19 nM.

B3: DVD486 (bispecific antibody, human IgG1, kappa)
heavy: not shown
light: B2 light
notes: DVD-Ig; outer AB071 (VEGF), inner AB015 (DLL4); also called VEGF and DLL4 DVD-Ig, HC linker short, LC linker long
The molecule B3 came in with an EC50 in assay [3] of 2.09 nM.

B4: DVD551 (bispecific antibody, human IgG1, kappa)
heavy: not shown
light: AIQMTQSSSSFSVSLGDRVTITCKASEDIYNRFAWYQQKPGNAPRLLISGAASLEAGVPSRFSGSGSGQDYTLSITSLQTEDVATYYCQQYWSTPWTFGGGTKLEIKRTVAAPSVFIFPPDIQMTQSPSSLSASVGDRVTITCRASQDVSTAVAWYQQKPGKAPKLLIYSASFLYSGVPSRFSGSGSGTDFTLTISSLQPEDFATYYCQQSYTTPPTFGQGTKVEIKRTVAAPSVFIFPPSDEQLKSGTASVVCLLNNFYPREAKVQWKVDNALQSGNSQESVTEQDSKDSTYSLSSTLTLSKADYEKHKVYACEVTHQGLSSPVTKSFNRGEC
notes: HC linker long, LC linker long; also called DVD-Ig DVD551
For the molecule B4, the EC50 in assay [1] was 1590 nM; in assay [2] it was 97 nM.

B5: DVD581 (bispecific antibody, human IgG1, kappa)
heavy: not shown
light: DIVLTQSPDSLAVSLGERVTMNCKSSQSLLNSGMRKSFLAWYQQKPGQSPKLLIYWASTRESGVPDRFTGSGSGTDFTLTISSVQAEDVAVYYCKQSYHLFTFGSGTKLEIKRTVAAPSVFIFPPDIQMTQSPSSLSASVGDRVTITCRASQDVSTAVAWYQQKPGKAPKLLIYSASFLYSGVPSRFSGSGSGTDFTLTISSLQPEDFATYYCQQSYTTPPTFGQGTKVEIKRTVAAPSVFIFPPSDEQLKSGTASVVCLLNNFYPREAKVQWKVDNALQSGNSQESVTEQDSKDSTYSLSSTLTLSKADYEKHKVYACEVTHQGLSSPVTKSFNRGEC
notes: HC linker long, LC linker long; also called DVD-Ig DVD581
Turning to B5, the EC50 in assay [1] was determined as 35.9 nM; in assay [2], 0.39 nM.

B6: DVD476 (bispecific antibody, human IgG1, kappa)
heavy: not shown
light: DIQMTQSPSSLSASVGDRVTITCSASQDISNYLNWYQQKPGKAPKVLIYFTSSLHSGVPSRFSGSGSGTDFTLTISSLQPEDFATYYCQQYSTVPWTFGQGTKVEIKRTVAAPDIQMTQSPSSLSASVGDRVTITCRASQDVSTAVAWYQQKPGKAPKLLIYSASFLYSGVPSRFSGSGSGTDFTLTISSLQPEDFATTYYCQQSYTGTVTFGQGTKVEIKRTVAAPSVFIFPPSDEQLKSGTASVVCLLNNFYPREAKVQWKVDNALQSGNSQESVTEQDSKDSTYSLSSTLTLSKADYEKHKVYACEVTHQGLSSPVTKSFNRGEC
notes: DVD-Ig; also called VEGF and DLL4 DVD-Ig, HC linker long, LC linker short
In assay [3], B6 came in with an EC50 of 11.7 nM.

B7: DVD470 (bispecific antibody, human IgG1, kappa)
heavy: not shown
light: DIQMTQSPSSLSASVGDRVTITCSASQDISNYLNWYQQKPGKAPKVLIYFTSSLHSGVPSRFSGSGSGTDFTLTISSLQPEDFATYYCQQYSTVPWTFGQGTKVEIKRTVAAPSVFIFPPDIQMTQSPSSLSASVGDRVTITCRASQDVSTAVAWYQQKPGKAPKLLIYSASFLYSGVPSRFSGSGSGTDFTLTISSLQPEDFATTYYCQQSYTGTVTFGQGTKVEIKRTVAAPSVFIFPPSDEQLKSGTASVVCLLNNFYPREAKVQWKVDNALQSGNSQESVTEQDSKDSTYSLSSTLTLSKADYEKHKVYACEVTHQGLSSPVTKSFNRGEC
notes: DVD-Ig; also called VEGF and DLL4 DVD-Ig, HC linker long, LC linker long
Regarding B7, the half-maximal effective concentration (EC50) in assay [3] worked out at 1.72 nM.

B8: DVD482 (bispecific antibody, human IgG1, kappa)
heavy: not shown
light: B7 light
notes: DVD-Ig; also called VEGF and DLL4 DVD-Ig, HC linker short, LC linker long
Take B8: in assay [3], the midpoint of the response, the EC50, lay at 3.25 nM.

B9: DVD543 (bispecific antibody, human IgG1, kappa)
heavy: not shown
light: AIQMTQSSSSFSVSLGDRVTITCKASEDIYNRFAWYQQKPGNAPRLLISGAASLEAGVPSRFSGSGSGQDYTLSITSLQTEDVATYYCQQYWSTPWTFGGGTKLEIKRTVAAPDIQMTQSPSSLSASVGDRVTITCRASQDVSTAVAWYQQKPGKAPKLLIYSASFLYSGVPSRFSGSGSGTDFTLTISSLQPEDFATYYCQQSYTTPPTFGQGTKVEIKRTVAAPSVFIFPPSDEQLKSGTASVVCLLNNFYPREAKVQWKVDNALQSGNSQESVTEQDSKDSTYSLSSTLTLSKADYEKHKVYACEVTHQGLSSPVTKSFNRGEC
notes: HC linker short, LC linker short; also called DVD-Ig DVD543
Consider B9, for which the results for the EC50 in assay [1] and in assay [2] were 1120 nM and 0.14 nM, respectively.

B10: DVD559 (bispecific antibody, human IgG1, kappa)
heavy: not shown
light: B9 light
notes: HC linker long, LC linker short; also called DVD-Ig DVD559
Turning to B10, the figures for the EC50 in assay [1] and in assay [2] were 39.2 nM and 0.13 nM, respectively.

B11: DVD583 (bispecific antibody, human IgG1, kappa)
heavy: not shown
light: DIVLTQSPDSLAVSLGERVTMNCKSSQSLLNSGMRKSFLAWYQQKPGQSPKLLIYWASTRESGVPDRFTGSGSGTDFTLTISSVQAEDVAVYYCKQSYHLFTFGSGTKLEIKRTVAAPSVFIFPPDIQMTQSPSSLSASVGDRVTITCRASQVIRRSLAWYQQKPGKAPKLLIYAASNLASGVPSRFSGSGSGTDFTLTISSLQPEDFATYYCQQSNTSPLTFGQGTKVEIKRTVAAPSVFIFPPSDEQLKSGTASVVCLLNNFYPREAKVQWKVDNALQSGNSQESVTEQDSKDSTYSLSSTLTLSKADYEKHKVYACEVTHQGLSSPVTKSFNRGEC
notes: outer AB047 (PlGF), inner AB071 (VEGF); HC linker long, LC linker long; also called DVD-Ig DVD583
On to B11, for which the half-maximal effective concentration (EC50) in assay [1] amounted to 560 nM; in assay [2], 0.32 nM.
